Assay [1] has as its target full length human SIRPα v1 with a small beta-gal fragment (ED) fused to its C-terminal, expressed in K562 … (human, UniProt P78324 31-504). The assay can be described thus: cell-based or functional assay.
For assay [2], the target named is T1, full length human SIRPα v1 stably expressed on CHOK1 or 293F cells (human, UniProt P78324 31-504).
T1 construct: whole, on cells; also called CHOK1-human SIRPα v1; CHOK1-hSIRPα v1
As to the kind of experiment: FACS, 293F-hSIRPα v1 cells. A general note: A flow cytometer gives signals particle by particle.

The target of assay [3] is T2, human SIRPβ ECD recombinant protein (6×His tagged) (human, UniProt O00241 30-371).
T2 construct: extracellular domain; Bought from Sino Biological; also called hSIRPβ ECD; not shown: 6×His tag
As to the kind of experiment: ELISA, hSIRPβ ECD. The text has this: (§1) Binding activity of the purified chimeric antibodies against SIRPβ and SIRPBI was detected by ELISA assay using recombinant proteins of human SIRPβ ECD (FIGS. 3A and 3B), human SIRPBI ECD (FIGS. 3D and 3E) and FACS assay using CHOK 1 cells stably expressing human SIRPB (FIG. 3C).
(ELISA stands for enzyme-linked immunosorbent assay.)

For assay [4], the target named is T3, human SIRPβL ECD recombinant protein (6×His tagged) (human, UniProt Q5TFQ8 30-371).
T3 construct: given variously as SIRPBL, SIRPBI and SIRPβI; Bought from Biointron; also called human SIRPBL ECD; human SIRPBI ECD
The assay can be described thus: ELISA, hSIRPβI ECD.
Excerpt: as §1

For assay [5], the target named is T4, cyno SIRPγ ECD recombinant protein (cyno).
T4 construct: extracellular domain
The assay can be described thus: ELISA, cyno SIRPγ ECD.

Assay [6] deals with T5, human SIRPβ stably expressed on CHOK1 cells (human, UniProt O00241 30-398).
T5 construct: whole, on cells; also called CHOK1-human SIRPB; CHOK1-hSIRPβ
As to the kind of experiment: FACS, CHOK1-hSIRPβ cells.
Excerpt: as §1

For assay [7], the target named is T1, full length human SIRPα v1 stably …. The assay can be described thus: FACS, CHOK1-hSIRPα v1 cells.
For assay [8], the target named is Human SIRPα v1 (antigen of the Octet and Biacore affinity measurements) (human, UniProt P78324 31-370, limits assumed). The assay can be described thus: BLI (Octet), 1:1 binding model. The protocol:
The purified chimeric antibodies were characterized for binding affinity against human SIRPα v1, human SIRPα v2 using Bio-Layer Interferometry technology (Octet system). The association and dissociation curves were fit with 1:1 binding model, and the Ka/Kd/KD values for each antibody were calculated.
A general note: BLI is a label-free optical method that tracks binding on a fibre tip over time.

The target of assay [9] is T6, C57BL/6 mouse SIRPα ECD recombinant protein (6×His tagged) (C57BL/6 mouse, UniProt P97797 32-373).
T6 construct: extracellular domain; Bought from Biointron; not shown: 6×His tag
T6 sequence (looked up): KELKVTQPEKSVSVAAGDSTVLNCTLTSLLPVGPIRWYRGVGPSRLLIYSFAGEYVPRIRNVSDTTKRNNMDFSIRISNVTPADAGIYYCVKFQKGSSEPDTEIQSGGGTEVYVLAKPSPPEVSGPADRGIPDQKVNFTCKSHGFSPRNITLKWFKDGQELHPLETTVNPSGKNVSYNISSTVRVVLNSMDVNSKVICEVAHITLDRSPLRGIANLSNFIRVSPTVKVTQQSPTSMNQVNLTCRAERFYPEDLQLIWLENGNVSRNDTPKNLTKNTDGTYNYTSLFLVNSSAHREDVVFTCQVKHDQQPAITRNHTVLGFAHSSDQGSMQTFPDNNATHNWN
As to the kind of experiment: ELISA, recombinant C57BL/6 mouse SIRPα ECD. The text has this: Species cross reactivity of purified chimeric antibodies was detected by ELISA assay using recombinant protein of C57BL/6 mouse SIRPα ECD (FIG. 5A) and FACS assay using CHOK 1 cells stably expressing cyno SIRPα (FIGS. 5B and 5C). All antibodies as tested bind to cyno SIRPα at different levels but have no species cross reactivity against C57BL/6 mouse SIRPα.

Assay [10] concerns the target T7, human SIRPα v1 ECD recombinant protein (tag not given) (human, UniProt P78324 31-373).
T7 construct: extracellular domain; also called biotin labeled soluble human SIRPα v1 ECD recombinant protein; ELISA microplate coated human SIRPα v1 ECD
As to the kind of experiment: competitive ELISA, mFc-CD47 ECD on coated SIRPα v1 ECD. The method, then: (§2) Competitive ELISA assay was used to determine whether the purified chimeric antibodies can block CD47 and SIRPα interaction. Briefly, antibody and mFc tagged human CD47 ECD recombinant protein were co-incubated with ELISA microplate coated human SIRPα v1 ECD (FIGS. 6A and 6B) or human SIRPα v2 ECD (FIGS. 7A and 7B) recombinant protein. After washing, HRP labeled anti-mouse Fc 2nd antibody (Sigma) was added and incubated at 37° C. for 1 hour. Then, 100 μl/well of TMB solution (Biotechnology) was added. After incubation for 15 minutes at room temperature, the reaction was stopped by the addition of 50 μl of 1N HCl. OD 450 nm was read. Blocking ratio was determined by blockade of human CD47 ECD recombinant protein binding to ELISA microplate coated human SIRPα ECD recombinant protein. Other than 005, all antibodies as tested can block interaction between human CD47 and different human SIRPα variants.

Assay [11] concerns the target T8, human SIRPα v2 ECD recombinant protein (tag not given) (human).
T8 construct: extracellular domain; also called ELISA microplate coated human SIRPα v2 ECD
The assay can be described thus: competitive ELISA, mFc-CD47 ECD on coated SIRPα v2 ECD. The method, then:
as §2

Assay [12] concerns the target T9, mFc tagged human SIRPα v1 ECD recombinant protein (human, UniProt P78324 31-373).
T9 construct: extracellular domain; Bought from Biointron; not shown: mouse IgG Fc (mFc) tag
As to the kind of experiment: competitive ELISA binning, mFc-SIRPα v1 ECD; competitor 025c. The protocol:
(§3) Competitive ELISA assay was used for epitope binning of purified chimeric antibodies. Briefly excessive competitor antibody and mFc tagged human SIRPα v1 ECD recombinant protein were co-incubated with ELISA microplate coated antibody. After washing, HRP labeled anti-mouse Fc 2nd antibody (Sigma) was added and incubated at 37° C. for 1 hour. Then, 100 μl/well of TMB solution (Biotechnology) was added. After incubation for 15 minutes at room temperature, the reaction was stopped by the addition of 50 μl of 1N HCl. OD 450 nm was read. Competition ratio was calculated. The antibodies that can compete each other for binding to SIRPα may have related binding epitopes.

Assay [13] deals with T9, mFc tagged human SIRPα v1 ECD …. The assay can be described thus: competitive ELISA binning, mFc-SIRPα v1 ECD; competitor 042c. The method, then: as §3
Assay [14] has the same target. As to the kind of experiment: competitive ELISA binning, mFc-SIRPα v1 ECD; competitor hu1H9G4. The protocol:
as §3

For assay [15], the target named is T10, human SIRPγ stably expressed on 293F cells (human, UniProt Q9P1W8 29-387).
T10 construct: whole, on cells
The assay can be described thus: FACS, 293F-human SIRPγ cells.

full length human SIRPα v1 with a small beta-gal fragment (ED) fused to its C-terminal, expressed in K562 …, sequence (P78324 31-504): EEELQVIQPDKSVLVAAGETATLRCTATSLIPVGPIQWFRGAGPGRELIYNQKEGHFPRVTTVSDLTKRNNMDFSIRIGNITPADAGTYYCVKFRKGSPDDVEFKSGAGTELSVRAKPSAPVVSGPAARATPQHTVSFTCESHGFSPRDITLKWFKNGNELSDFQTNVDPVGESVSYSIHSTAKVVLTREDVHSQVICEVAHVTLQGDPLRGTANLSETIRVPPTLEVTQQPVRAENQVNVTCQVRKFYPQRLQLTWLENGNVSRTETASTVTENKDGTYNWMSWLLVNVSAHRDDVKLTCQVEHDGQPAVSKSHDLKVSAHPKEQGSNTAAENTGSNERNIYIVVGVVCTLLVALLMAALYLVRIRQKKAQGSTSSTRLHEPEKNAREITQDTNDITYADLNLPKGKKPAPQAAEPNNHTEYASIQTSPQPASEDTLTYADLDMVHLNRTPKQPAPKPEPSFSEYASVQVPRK
T1 sequence (P78324 31-504): as above
T2 sequence (O00241 30-371): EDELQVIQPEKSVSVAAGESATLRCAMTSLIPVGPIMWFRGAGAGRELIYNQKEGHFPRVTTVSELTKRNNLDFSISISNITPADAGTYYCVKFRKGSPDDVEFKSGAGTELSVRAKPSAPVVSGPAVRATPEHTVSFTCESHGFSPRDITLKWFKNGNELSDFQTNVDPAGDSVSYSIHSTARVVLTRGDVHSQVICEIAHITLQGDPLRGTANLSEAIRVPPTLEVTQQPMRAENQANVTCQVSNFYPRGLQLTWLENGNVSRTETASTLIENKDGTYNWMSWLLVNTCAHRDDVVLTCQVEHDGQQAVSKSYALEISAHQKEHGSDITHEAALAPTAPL
T9 sequence (P78324 31-373): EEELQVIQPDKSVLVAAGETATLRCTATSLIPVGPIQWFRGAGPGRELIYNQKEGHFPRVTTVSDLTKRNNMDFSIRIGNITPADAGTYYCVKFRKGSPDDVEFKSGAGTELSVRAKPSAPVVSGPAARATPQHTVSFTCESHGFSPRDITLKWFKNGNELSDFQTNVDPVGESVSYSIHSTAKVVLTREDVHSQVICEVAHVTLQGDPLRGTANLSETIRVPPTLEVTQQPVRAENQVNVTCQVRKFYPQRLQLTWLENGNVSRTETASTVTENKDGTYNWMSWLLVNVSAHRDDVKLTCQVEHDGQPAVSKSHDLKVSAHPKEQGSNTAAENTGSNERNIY
T7 sequence (P78324 31-373): as above
T5 sequence (O00241 30-398): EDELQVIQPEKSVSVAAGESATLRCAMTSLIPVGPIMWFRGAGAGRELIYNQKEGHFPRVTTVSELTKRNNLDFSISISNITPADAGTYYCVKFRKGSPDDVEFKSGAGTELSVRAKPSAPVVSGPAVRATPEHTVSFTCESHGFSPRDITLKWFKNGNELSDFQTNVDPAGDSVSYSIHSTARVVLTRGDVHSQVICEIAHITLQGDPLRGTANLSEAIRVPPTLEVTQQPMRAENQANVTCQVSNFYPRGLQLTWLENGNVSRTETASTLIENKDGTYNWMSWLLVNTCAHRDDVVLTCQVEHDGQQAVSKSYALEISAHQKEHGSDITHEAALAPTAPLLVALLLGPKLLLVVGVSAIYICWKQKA
Human SIRPα v1 (antigen of the Octet and Biacore affinity measurements), sequence (P78324 31-370 limits assumed): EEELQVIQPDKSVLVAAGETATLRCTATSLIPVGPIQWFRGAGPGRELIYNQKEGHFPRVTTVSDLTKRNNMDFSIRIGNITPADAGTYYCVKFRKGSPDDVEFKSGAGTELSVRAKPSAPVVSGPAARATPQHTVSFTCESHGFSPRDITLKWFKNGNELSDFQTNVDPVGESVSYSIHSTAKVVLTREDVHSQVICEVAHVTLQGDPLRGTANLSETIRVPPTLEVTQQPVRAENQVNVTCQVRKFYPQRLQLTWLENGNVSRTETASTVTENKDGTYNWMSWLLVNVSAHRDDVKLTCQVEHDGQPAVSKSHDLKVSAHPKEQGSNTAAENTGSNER
T3 sequence (Q5TFQ8 30-371 limits assumed): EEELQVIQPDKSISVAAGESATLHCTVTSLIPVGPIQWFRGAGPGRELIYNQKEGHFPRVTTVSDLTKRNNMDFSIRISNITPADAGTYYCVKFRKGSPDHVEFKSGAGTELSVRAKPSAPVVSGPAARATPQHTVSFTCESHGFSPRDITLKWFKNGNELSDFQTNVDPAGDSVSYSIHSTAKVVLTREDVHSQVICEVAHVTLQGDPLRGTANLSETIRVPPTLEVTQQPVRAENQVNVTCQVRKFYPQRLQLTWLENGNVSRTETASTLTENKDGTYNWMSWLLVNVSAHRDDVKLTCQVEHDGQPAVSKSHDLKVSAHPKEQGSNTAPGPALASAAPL
T10 sequence (Q9P1W8 29-387): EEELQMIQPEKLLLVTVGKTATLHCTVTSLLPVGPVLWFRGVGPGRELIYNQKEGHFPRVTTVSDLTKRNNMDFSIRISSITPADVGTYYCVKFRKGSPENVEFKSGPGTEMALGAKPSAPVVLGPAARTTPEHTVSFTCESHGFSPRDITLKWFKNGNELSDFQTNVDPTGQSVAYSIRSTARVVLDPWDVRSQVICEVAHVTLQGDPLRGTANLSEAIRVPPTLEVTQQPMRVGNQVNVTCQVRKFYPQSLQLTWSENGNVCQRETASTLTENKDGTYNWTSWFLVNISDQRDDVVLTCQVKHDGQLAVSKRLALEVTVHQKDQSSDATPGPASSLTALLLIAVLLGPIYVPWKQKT

B1: 005c (antibody, V domains shown)
VH: EVKLVESGGGLVQPGGSLSLSCAASGFTFTDYYMSWVRQPPGKALEWLGFIKNEANGYTTESSASVKGRFTISRDNSQSILYLQMNALRAEDSATYYCARYDYYGSNYNWYFDAWGTGTTVTVSS
VL: DIVMTQSQKFMSPSVGDRVSITCKASQNVRTAVAWYQQKPGQSPKVLIHLASKRHTGVPDRFTGSGSGTDFTLTISNVQSEDLADYFCLQHWIHPLTFGAGTKLELK
notes: also called chimeric antibody 005c
As to B1, in [1], the “SHP-1 recruitment blocking, IC50” value was determined as 3.85 nM and the “SHP-1 recruitment blocking, TOP blocking (%)” value was 76.4%. Further, the EC50 (in general, the concentration at which the effect is half-maximal) in assay [2] was found to be 3.88 nM.

B2: 042c (antibody, V domains shown)
VH: QIQLVQSGPELKKPGETVKISCRASGYTFTTYGMSWVKQAPGKGLRWMGWINTYSGVSTCADDFKGRFAFSLETSATTAYLQIHNLTNEDTATYFCARDPHSYGNSPAWFPYWGQGTLVTVSA
VL: DIVMTQSQKFMSTTIRDRVSITCKASQNVGISVAWYQQKSGQSPKLLIYSASNRYTGVPDRFTGSGSGTDFTLTISNMQSEDLADYFCQQYSSYPLTFGSGTKLAIK
notes: also called chimeric antibody 042c
On to B2, for which the EC50 is 0.23 nM in [3]; 0.39 nM in assay [4]; 20.5 nM in assay [5]; 39.8 nM in assay [6]; 1.9 nM in assay [7]. The “TOP OD450” value in assay [3] came out at 3.23 OD450; in assay [4] it was 2.69 OD450; in assay [5] it was 1.22 OD450. Also, the “SHP-1 recruitment blocking, IC50” value in [1] is 0.99 nM. In addition, the “SHP-1 recruitment blocking, TOP blocking (%)” value in [1] stood at 70%. Moreover, the “TOP MFI” value was 3910 MFI in [6] and 73200 MFI in assay [7]. Also, binding in assay [8] was put at a Kd of 9.2 nM. Besides, the dissociation rate constant (koff) (in general, the first-order rate constant of dissociation) in assay [8] is 0.00545 s⁻¹. Besides, the kon (usually a measure of how fast the partners come together) in [8] amounted to 593000 M⁻¹ s⁻¹. Besides, the binding result in assay [9] is given as “no binding”. For the same molecule, the half-maximal inhibitory concentration (IC50) (usually the concentration that inhibits the measured activity by half) in [10] turned out to be 3.6 nM; in [11] it was 4.49 nM. The “TOP blocking (%)” value amounted to 97.1% in assay [10] and 94.6% in assay [11]. Moreover, the “% Competition” value is 8.9% in [12], 93.9% in [13] and 29.8% in assay [14].

B3: 073c (antibody, V domains shown)
VH: QIQLVQSGPELKKPGETVKISCKASGYTFTTYGMSWVKQAPGKGLKWMVWINTYSGVPTYADDFKGRFAFSLETSASTSYLQINNLKNEDTATYFCARDPHYYGSSPAWFVYWGQGTLVTVSA
VL: DIVMTQSQKFMSTTIGDRVSITCEASQIVGIAVAWYQQKPGQSPKLLIYSASNRYTGVPDRFTGSGSGTDFTLTISNMQSEDLANYFCQQYSAYPFTFGSGTKLEVK
notes: also called chimeric antibody 073c
For B3, the EC50 in assay [3] was found to be 2.14 nM; in [4], 0.27 nM; in assay [5] it was 45.5 nM; in assay [6], 22.9 nM; in assay [7] it was 1.5 nM; in [15], 12.6 nM. The results for the “TOP OD450” value in assay [3], in [4] and in [5] were 3.07 OD450, 2.64 OD450 and 0.92 OD450, respectively. Also, in assay [1], the “SHP-1 recruitment blocking, IC50” value was determined as 5.66 nM. Moreover, the “SHP-1 recruitment blocking, TOP blocking (%)” value in assay [1] came to 51.2%. The “TOP MFI” value in assay [6] came out at 2630 MFI; in assay [7], 67800 MFI; in [15], 728 MFI. Moreover, the Kd (usually the equilibrium constant for the complex coming apart) in assay [8] amounted to 6.07 nM. Further, the dissociation rate constant (koff) in assay [8] amounted to 0.00303 s⁻¹. In addition, the kon in assay [8] is 499000 M⁻¹ s⁻¹. In addition, the binding result in assay [9] is on record as “no binding”. For the same molecule, the IC50 in assay [10] amounted to 2.74 nM; in assay [11] it was 4.92 nM. For the same molecule, the “TOP blocking (%)” value in assay [10] worked out at 95.1%; in [11], 82.8%. For the same molecule, the “% Competition” value in assay [12] was 9.1%; in [13], 93.6%; in assay [14], 37.7%.

The values are drawn from patent publication US20250270315A1 (ELPISCIENCE SUZHOU BIOPHARMA, published 2025).
